The nature of the data set: soluble on expression in E. coli; label from the status in PepcDB or PDB records.
Regarding “MSLPTTSSPLTNDQEFAKPVRNGKIFENPKSFTNWGGRPGLTNIFKLVLRETSHENLPSDKKVLDSTLPVHNITADDFHSESGLFATWLGHATVLVDLEGVKFVTDPVWADRASFTSFAGPKRYRPPPMKLEDLPDLDFAVVSHDHYDHLDADAVKRITNLNPQIKWFVPLGLKKWMKNQGIGADGSNTVTELNWGESSEFVKNGKTITIWCLPAQHSGQRGLSDHNHRLWSGWAVIGENRRFYFPGDTGFCDVEFKKIGEKLGPFDLAAIPIGAYEPRWFMKSHHINPDEAVEVHKLVRARNSIGIHWGTYPMGTTEYYLEPRDKLKELMDAREDLKDTSFVTVDMGEIWEASDR”, the “soluble on expression in E. coli” value is on record as “not soluble”.
Next, “MGSSHHHHHHSSGRENLYFQGHMSANVQEAANAAIEPASFVKVPMPEPPSSLQQLINDWQLIKHREGGYFKETDRSPYTMEVEKPVNGGSGNTEMVTRNQSTLIYYLLTPDSPIGKFHKNINRIIHILQRGKGQYVLVYPDGQVKSFKVGFDYKNGEVSQWVVPGGVFKASFLLPNEEFDNGFLISEVVVPGFDFEDHTFLKGEDELKHLVGPEKAAELAFLA”: “soluble”; “MGSDKIHHHHHHMNNVLILYPKLFNCYSKFSRKVLKITSSLGAATLVYPDDPNGLIEKFCEESSGKMTNKEFPNWTPDDITHAIIFDDGEEFIEETERLKESKKPLRLIGICITRVINIKTETEYQSEKSTPIYEYIGRGSYWGNPYSMFEEGEDREEVIRKYKYDFDFEKFPNKEKSEVYKLAGKRLGCFCKPQACHGDVLADFLNSWDDGK”: “not soluble”.
Next, “MGSDKIHHHHHHMEVTRTDKAVTLTWNKEEVSEGTVVFVSSSPKLEANSEPVFKVTNDVDHYSYDTKDIPIYFFLETPNGYYAIVSERILPLESVFNFRDMGGYASKNGKHVKWGKLYRSSNLVNINENDAALLQKLHIKWICDLRSSSEVKAQPTPAIEGILNKHIPIGTAKNEETKLPVTNDTTIYEPLMGESYRVFVQSVEGFREIFTEVLEDAKAGLPFVFHCTAGKDRTGVLGALLLTLLDVPEKTIFDDYAITNRYQDDILQEMGGIVSLFSSGTEKIDLETFRPMAEARPEYLEIAFDEMKKQYGSVANYLEKGIGITATEKAAFQKEMLE”: “not soluble”; “AIGEFMVSLPRMVYPQPKVLTPCRKDVLVVTPWLAPIVWEGTFNIDILNEQFRLQNTTIGLTVFAIKKYVAFLKLFLETAEKHFMVGHRVHYYVFTDQPAAVPRVTLGTGRQLSVLEVRAYKRWQDVSMRRMEMISDFCERRFLSEVDYLVCVDVDMEFRDHVGVEILTPLFGTLHPGFYGSSREAFTYERRPQSQAYIPKDEGDFYYLGGFFGGSVQEVQRLTRACHQAMMVDQANGIEAVWHDESHLNKYLLRHKPTKVLSPEYLWDQQLLGWPAVLRKLRFTAVPKNHQAVRNP”: “soluble”; “MSLSNYISIKGAKVNNLKNIDVNIPRNKLVVITGLSGSGKSSLAFDTGKTICPVCHGTRLKKEAGYVKVGGKSISQLVDLPIHDLKEFFRTLELDAHDTAIAKRILTEITNRINFLMDVGLGYLTLNRLSNSLSGGESQRINLATSLGSSLVGSLYILDEPSIGLHSRDTDRLIKVLRQLQELGNTVVVVEHDEEIIRAADYIIDIGPQAGRLGGQIVYQGNMNDLQRNSNSYTVRYLLGEEGHHHHHH”: “soluble”.
Consider “MASFIDLSSADLSPLSGALHGPDRVARALLIQGGALVPPRPMLWPCAGDMLNGLHILGDLHAPDVDLLVAKRVVAGGSGAHLKLDDQLVYAEGAYPYYVQHWYQHDIARQAWDFDAPVTHRLDRAFVITHFNFVWGHWLTEMYPKLFVIRALNAAGITAPLLLPRTAPGYVARIVRMMLPDQEIVTYDPRDEAVEIGAALLPHMLNRNYVFHDFLRWNLEREALSFTKGGDADMLFVSRGGVRTAQSFRELENEAEIEGLAQEAGLTLVRPETLGWDQQARLFSRARLVAGEFGSGLHNALLSPQGCQVVSLNWLVEVQSRIGNFRRHDVGYILPADGQARLYSIEPQANQPFTIDPVEFRQKLAIAVDRAQARKAMAGWDDAPFPVDTPELRLLEHHHHHH”, for which the “soluble on expression in E. coli” value is reported as “soluble”.
With “GSKFLNKRLSEREFDPDIHCGVIDLDTKKPCTRSLTCKTHSLTQRRAVQGRRKRFDVLLAEHKNKTREKELIRH”, the “soluble on expression in E. coli” value was “soluble”.
Next, “EVQLQQSGPELVKPGSSVKISCKASRNTFTDYNLDWVKQSHGKTLEWIGNVYPNNGVTGYNQKFRGKATLTVDKSSSTAYMELHSLTSEDSAVYYCALYYYDVSYWGQGTLVTVSSAKTTPPSVYPLAPGSAAQTNSVTLGCLVKGYFPEPVTVTWNSGSLSSGVHTFPAVLQSDLYTLSSSVTVPSSTWPSQSVTCNVAHPASSTAVDKKIAPA”: “soluble”.
Next, “SLTPLSAITVRSMEGPPTVQQQSPSVIRQSPTQRRKTSTTSSTSRAPPPTNPDASSSSSSFAVPTIHFKESPFYKIQRLIPELVMNVEVTGGRGMCSAKFKLSKADYNLLSNPNSKHRLYLFSGMINPLGSRGNEPIQFPFPNELRCNNVQIKDNIRGFKSKPGTAKPADLTPHLKPYTQQNNVELIYAFTTKEYKLFGYIVEMITPEQLLEKVLQHPKIIKQATLLYLKKTLREDEEMGLTTTSTIMSLQCPISYTRMKYPSKSINCKHLQCFDALWFLHSQLQIPTWQCPVCQIDIALENLAISEFVDDILQNCQKNVEQVELTSDGKWTAILEDDDDSDSDSNDGSRSPEKGTLGEGAAALEHHHHHH”: “soluble”; “MMKKILVACGTGMSTSTMIAQKLQDFLAEQGIAATTAQCCLNEIPLNCNGMDLIVTSMRTHSDYGIPTLNGAALLTGINDDALKQEIKALLTQ”: “not soluble”.
Next, “MAHHHHHHMLSLPRDHHYHAHHSGTEFVPFDQVIGITPDGVPVISNGNEFHFSNLESVTPSYQALCSSVRKAPVIVPCTKLGAKWQCVEFARRYLASRKAVWTASMPIAADMLRAEPPFVHVQDSTPVEFTRTPNRSHGPAPAMSDIIVWDQSEETPLGHVAVVTEVLPEAVRVAEQNQGFERWPQGMLYSREISMQRSSAGTVELVDEDSVLGWVTLQCPYYDFRDGDLADKFRIATGPGCIVRQPFPKHVELPWVQPEERCDFYLKRSLAIGGNVGDDARAEECDVPSAFFFYFLDY”: “not soluble”; “MAHHHHHHMASGCLKYASVDDFIAKCILSRDPYQPEFTQAVREVMTSLWPFLQKNPKYTQDGLLERIVEPERVIQFRVPWVDDKGVTHVNRAFRVQFNSAIGPYKGGMRFHPSVNLSILKFLGFEQTFKNSLTTLPMGGGKGGADFDPKGKSDCEVMRFCQSLVAELYRHIGADTDVPAGDIGVGSREVGYMNGMYWKLRNTNECTFTGKGLAFQGSAIRPEATGYGLVYFVQSMLTHVNDSLEGKTVLVSGSGNVAQYAIEKCMELGAKVITASDSKGYIQDPSGFDKVKLAKLMKLKNECRGTLEEYARETGVTYVPGKRPWCVKADIALPCATQNEIEGADAKTMLTNGVKLVAEGANMPTTEEATEIFQKAGVLFAPGKASNAGGVAISGLEMSQNAARLVWDAEEVDSRLRSIMSSIHDSCVQYGEKDGKVSYVDGANIAGFACFLRRRTFATRVSPVHQVLCT”: “soluble”.
As to “MGSDKIHHHHHHMSQHVLLNSIEHKDVKVMTHRSAALGDNLWYSVTFPQEFRSVQAHYPIFFHKDTATGQFYAVALFGFQQNDNVFLSDQGWSASYVPLTVRRQPFLIGQQTVLEDGVERQQRVIHVDLDHPRVSETEGEALFLPYGGNTPLLDEVGEILEVIHHGLQDGQRFVDALIEHQLLESFTLDIELDNGQKNQMIGFYTINEETLAGLSADALAKLHQQGYLQAIYMTLASQSNVRDLLNLKNAQG”, the “soluble on expression in E. coli” value is recorded as “not soluble”.
As for “MSLHLSKGFSNMIGVVLPTVNLPYFAELIAGIADAAAESGVHLSLFQTNYEVQKEIFALSQLKQRQVDGLIFCSKALADEKLMEWEGPILLCQNSDNARFPTISIPHQEAFRNGLDYLIAKGHKKIAICLARKKGMNSHFRIKAYKEALEEIGEAFREDWVIEKAITINDGKALFHKWNTWKEKPTAIFVANDQVSAGLFLEAKNQRVSVPDELAILSVDNHEISQALGITTIDIQTREMGKQAFAILEKRIQGQPIERKVLDYRLIERSTVEGHHHHHH”, the entry is “soluble”.
As for “NRYAKILVEKEKNRRTVMEQKMELESYKKVNVANDRYITLLHDTNHHIKTVYSLLKKDKKDDAMNMLSKLFDKYEKAEMIEYSGNTILNTILSDYKEKSSKENIECDIFVERGFNIEYVDEIDLVAMLSNLLSNSYEAAAKSDMKKIRIQMFMQNDGSFSVIKIENSYTSMIVEEDSVLKTTKQNKEFHGLGIKSVQQIAEKYNGWLSSTWSDNVFKSVLILENSMC”, the entry is “not soluble”; as for “MENGIGYIPLLNVSHKHGGTHFYRKNSGTCDLCEKNFKTSEELVEHKKNYPRADVEKALSVYKEKDTIYKCLQCSGEFRLKEDFDYHQELHKRLGELKSASSNKSEANKDDESDIDSSFEIIEN”, “not soluble”.
With “MRRGLAWVGALLLLGGCVSSRPIDEIQIIQQMGYDFENGRYTGTAVYPTFKQGPMTKPNMLTTTSPTIYDLIPRLSSKSALPIEEGQLRLILFGKEFARRGVTQITHSLARNNKVGSHLLLGVAEESAKELLKITAKTTLSDTLYLPNLVEQNEQSMNLPKTNLHLFLYRYFSPGSDPFLPYFEKKGDFVKLEGVALFRDDQYVGHVSLRDSFLMKILLGETKNGVYQLKVGNRGKQGEDRVMLQNLWAKPKYAWKRDGSRHVLDVFIHIHASVRDYPSWLDQPGGDLFADVKKKMQNELEHNMRRLFRYFQKKRIDPLGIGDFVRSVTRHWDSDAFYREYPDLDIRPHVTVDIVHTGIGE”, the “soluble on expression in E. coli” value was “not soluble”.
Turning to “MGSDKIHHHHHHMNYTKMRGVEEKLVESIVRRTIDTAEARLRKYVFTPTGEKRPERKPLAKLKEEIESFLRTRENKLLVLYGLRGVGKTTMLAQIYFKLLPQIPRERLVYVSLDKLRPLGISLNYFVQAYERLLGERIEEFSQPTFLFIDEAHYDENFGITVKDLYDSASNLMIVVTGSSSLPLKLDPDLMRRAKKLRVPPLTFTEYLLLKRGLQIPEELSAALKHAFLNCDFSGVEEKLDGVLLKFTEKDVEDYLIQGSLPIYLTSKNPLEDAYEILRKIVEVDLVLEGLSETTREKALGLLLLLASGESLAYDELSSTLGLAKGTVEKLIEKLEDLEVIFPVRAYGSLGKVARKTPKYKFLAPMLRSAVLYEFGLFERDSKTLGMLLEDAVALYLHLLAKEKKLGLHYDAQKGGADFILKGQSRGIVIEVGWGKKGLRQVIKTMKKTGLNCGVVIYNGPLKKKGEVWFVPRELFLLML”, the “soluble on expression in E. coli” value is on record as “not soluble”.
Next, “MGSDKIHHHHHHMMSMKIFETTAPHPEASLLTAFSKNALDRFAEKRTEECVAEALKVDGTHIFAFSGNRLVLKHDEQVIDPLFSAYELAELQPDFDNAVLLGYRETGEPRIAVPVAVAEDQLASHYKLADARTLYRDHLLDEELLSEVAQAVSLTHWNADNRFCGRCGGTMEQRIGGYKRICASCSHTIFPRTDPVVIMMTIDIERDLCLLGRGAHFASGMYSCLAGFVEPGETIEQAVRRETHEESGVEIGRVRYHASQPWPMPHTLMIGCYAEALSSDIARDEIELEDCRWFTREEVAKMLEAPAGEGFSAPPIGAIAHRLMRDWVEWPE”: “not soluble”; “MANYWLYKSEPFKWSWEMQKAKGETGEEWTGVRNYQARNNMRAMKIGDKGFFYHSNEGLDVVGIVEVCALSHPDSTAEGDLKWDCVDIRAVCDMPQPVSLKDVKANPKLEKMSLVTSMRLSVQPVTEEEYLEVCRMGGLANPPKSPDLEHHHHHH”: “soluble”.

(Values after the DeepSol protein solubility set.)
